Data taken from article PMC7112767.

Target: IL-1β mutant with pBpa at position 63 (Homo sapiens)
Assay: cross-linking

## monoclonal phage displaying the scFv of canakinumab
  UV output (CFU): 6400 CFU
  UV/non-UV output ratio: 3.8
